Assay results taken from US6835807B1, “Drug complex and drug delivery system” (Daiichi Pharmaceuticals Co., Ltd., priority 1998, dated 2004).
Marks after values point to notes of the source that are not given here.

Experiments:
[1] = Release of the drug compound from the drug complex in Meth A homogenate (Example 8); format: in vitro ADME, murine; settings: for released amount of the drug (DX-8951), percentage of the drug in the drug complex used: 37° C., 50 μg/ml, after 20 hours
Procedure: (§1) (50 μg/ml). […] The released amount of the drug is expressed in percentage of the released amount of the drug to the amount of the drug in the drug complex used.

[2] = Release of the drug compound from the drug complex in buffer (Example 8); format: physicochemical; settings: for released amount of the drug (DX-8951), percentage of the drug in the drug complex used: 37° C., 50 μg/ml, after 20 hours
Procedure: as §1

[3] = Release of the drug compound from the drug complex in plasma (Example 8); format: in vitro ADME; settings: 37° C., 50 μg/ml, after 20 hours
Procedure: as §1

[4] = test system: Meth A tumor-bearing mice; assay: Maximum tolerated dose of the drug complexes of Examples 5, 6 and 7 (Example 9); format: in vivo, BALB/c mice; settings: for BWLmax, maximum body-weight reduction rate / N, mice died/mice used / day when the maximum body-weight reduction was observed: single administration on the 13th day
Procedure: Meth A cells were transplanted into BALB/c mice to prepare Meth A tumor-bearing mice. On the 13th day, the drug complexes obtained in Examples 5, 6 and 7 were singly administered. After the administration, measurement of the body weight and observation of toxic death were made with time, and the maximum body-weight reduction rate and mortality were calculated, which are shown in Table 5. The dose is expressed in terms of the weight of anhydrous free base of DX-8951.
On the basis of the dose in which body weight reduction and death were observed, MTD of each complex were judged as follows.

[5] = test system: Meth A cells; assay: Antineoplastic activity of the complexes of Examples 1, 5 and 6 (Example 10); format: in vivo, BALB/c mice; settings: for IR, diminution rate of the tumor: 21th day; for Average tumor weight: tumor weighed on the 21th day
Procedure: Meth A cells were transplanted into BALB/c mice to prepare Meth A tumor-bearing mice. On the 7th day after the transplantation, the drug complexes shown in Examples 1, 5 and 6 were singly administered, respectively. The weight of the tumor was measured on the 21th day to evaluate the inhibitory activity on the tumor and the toxicity. In the table, * represents significance in Dunnet's test (*** p<0.001, ** P<0.01, * P<0.05), the dose is expressed in terms of the weight of anhydrous free base of DX-8951, and IR represents the diminution rate of the tumor.

[6] = 0.15625 mg/kg, singly administered on the 7th day
[7] = 0.3125 mg/kg, singly administered on the 7th day
[8] = 0.625 mg/kg, singly administered on the 7th day
[9] = 1.25 mg/kg, singly administered on the 7th day
[10] = 1.875 mg/kg, singly administered on the 7th day

Substance: Carboxymethyldextran polyalcohol-Gly-Gly-Phe-Gly-NH-p-C 6H4—CH2—O—CO-DX-8951 [Example 5]
- released amount of the drug (DX-8951), percentage of the drug in the drug complex used ([1]; Meth A homogenate (pH 4.5)): 110.69%
- released amount of the drug (DX-8951), percentage of the drug in the drug complex used ([1]; Meth A homogenate (pH 5.5)): 110.31%
- released amount of the drug (DX-8951), percentage of the drug in the drug complex used ([1]; Meth A homogenate (pH 6.5)): 42.71%
- release of the drug in words ([1]; weakly acidic homogenate): rapidly released
- released amount of the drug (DX-8951), percentage of the drug in the drug complex used ([2]; Buffer (pH 4.5)): 0.79%
- released amount of the drug (DX-8951), percentage of the drug in the drug complex used ([2]; Buffer (pH 5.5)): 0.71%
- released amount of the drug (DX-8951), percentage of the drug in the drug complex used ([2]; Buffer (pH 6.5)): 0.8%
- release of the drug in words ([2]; buffer): hardly released
- released amount of the drug (DX-8951), percentage of the drug in the drug complex used [3]: 0.13%
- BWLmax, maximum body-weight reduction rate ([4]; 0.625 mg/kg): 2.0%
- N, mice died/mice used ([4]; 0.625 mg/kg): 0/3
- day when the maximum body-weight reduction was observed ([4]; 0.625 mg/kg): 14 days
- BWLmax, maximum body-weight reduction rate ([4]; 1.25 mg/kg): 5.0%
- N, mice died/mice used ([4]; 1.25 mg/kg): 0/3
- day when the maximum body-weight reduction was observed ([4]; 1.25 mg/kg): 18 days
- BWLmax, maximum body-weight reduction rate ([4]; 5 mg/kg): 28.6%
- N, mice died/mice used ([4]; 5 mg/kg): 3/3
- day when the maximum body-weight reduction was observed ([4]; 5 mg/kg): 18 days
- BWLmax, maximum body-weight reduction rate ([4]; 10 mg/kg): 27.1%
- N, mice died/mice used ([4]; 10 mg/kg): 3/3
- day when the maximum body-weight reduction was observed ([4]; 10 mg/kg): 18 days
- MTD relative to MTD of the drug complex obtained in Example 1 ([4]; Meth A tumor-bearing mice): about ⅓
- N, mice died/mice used ([4]; […]): 3/3
- BWLmax, maximum body-weight reduction rate [5, 6]: <0%
- N, mice died/mice used [5, 6]: 0/6
- IR, diminution rate of the tumor [5, 6]: 9%
- Average tumor weight [5, 6]: 2.394 ± 0.231 g
- BWLmax, maximum body-weight reduction rate [5, 7]: <0%
- N, mice died/mice used [5, 7]: 0/6
- IR, diminution rate of the tumor [5, 7]: 57%
- Average tumor weight [5, 7]: 1.128 ± 0.173*** g
- BWLmax, maximum body-weight reduction rate [5, 8]: <0%
- N, mice died/mice used [5, 8]: 0/6
- IR, diminution rate of the tumor [5, 8]: 88%
- Average tumor weight [5, 8]: 0.328 ± 0.164*** g
- BWLmax, maximum body-weight reduction rate [5, 9]: <0%
- N, mice died/mice used [5, 9]: 0/6
- IR, diminution rate of the tumor [5, 9]: 100%
- Average tumor weight [5, 9]: 0.010 ± 0.004*** g
- BWLmax, maximum body-weight reduction rate [5, 10]: 12.3%
- N, mice died/mice used [5, 10]: 0/6
- day when the maximum body-weight reduction was observed [5, 10]: 13 days
- IR, diminution rate of the tumor [5, 10]: 100%
- Average tumor weight [5, 10]: 0.011 ± 0.003*** g
- minimal effective dose relative to that of the drug complex shown in Example 1 ([5]; Meth A tumor-bearing mice): about ⅓
